{"source": "patent US20030207791A1", "about": "“Materials and methods relating to the treatment of leukaemias” (priority 2000, published 2003)", "molecules": {"B1": {"name": "PML-RAR: leukaemia-associated chimeric transcription factor, fusion of PML and RAR (protein)", "chain": "MEPAPARSPRPQQDPARPQEPTMPPPETPSEGRQPSPSPSPTERAPASEEEFQFLRCQQCQAEAKCPKLLPCLHTLCSGCLEASGMQCPICQAPWPLGADTPALDNVFFESLQRRLSVYRQIVDAQAVCTRCKESADFWCFECEQLLCAKCFEAHQWFLKHEARPLAELRNQSVREFLDGTRKTNNIFCSNPNHRTPTLTSIYCRGCSKPLCCSCALLDSSHSELKCDISAEIQQRQEELDAMTQALQEQDSAFGAVHAQMHAAVGQLGRARAETEELIRERVRQVVAHVRAQERELLEAVDARYQRDYEEMASRLGRLDAVLQRIRTGSALVQRMKCYASDQEVLDMHGFLRQALCRLRQEEPQSLQAAVRTDGFDEFKVRLQDLSSCITQGKDAAVSKKASPEAASTPRDPIDVDLPEEAERVKAQVQALGLAEAQPMAVVQSVPGAHPVPVYAFSIKGPSYGEDVSNTTTAQKRKCSQTQCPRKVIKMESEEGKEARLARSSPEQPRPSTSKAVSPPHLDGPPSPRSPVIGSEVFLPNSNHVASGAGEAIETQSSSSEEIVPSPPSPPPLPRIYKPCFVCQDKSSGYHYGVSACEGCKGFFRRSIQKNMVYTCHRDKNCIINKVTRNRCQYCRLQKCFEVGMSKESVRNDRNKKKKEVPKPECSESYTLTPEVGELIEKVRKAHQETFPALCQLGKYTTNNSSEQRVSLDIDLWDKFSELSTKCIIKTVEFAKQLPGFTTLTIADQITLLKAACLDILILRICTRYTPEQDTMTFSDGLTLNRTQMHNAGFGPLTDLVFAFANQLLPLEMDDAETGLLSAICLICGDRQDLEQPDRVDMLQEPLLEALKVYVRKRRPSRPHMFPKMLMKITDLRSISAKGAERVITLKMEIPGSMPPLIQEMLENSEGLDTLSGQPGGGGRDGGGLAPPPGSCSPSLSPSSNRSSPATHSP"}, "B2": {"name": "p53-RAR: RAR fused C-terminally to the tetramerization domain present in p53 (protein)", "chain": "GEYFTLQIRGRERFEMFRELNEALELKDAQAGMASNSSSCPTPGGGHLNGYPVPPYAFFFPPMLGGLSPPGALTTLQHQLPVSGYSTPSPATIETQSSSSEEIVPSPPSPPPLPRIYKPCFVCQDKSSGYHYGVSACEGCKGFFRRSIQKNMVYTCHRDKNCIINKVTRNRCQYCRLQKCFEVGMSKESVRNDRNKKKKEVPKPECSESYTLTPEVGELIEKVRKAHQETFPALCQLGKYTTNNSSEQRVSLDIDLWDKFSELSTKCIIKTVEFAKQLPGFTTLTIADQITLLKAACLDILILRICTRYTPEQDTMTFSDGLTLNRTQMHNAGFGPLTDLVFAFANQLLPLEMDDAETGLLSAICLICGDRQDLEQPDRVDMLQEPLLEALKVYVRKRRPSRPHMFPKMLMKITDLRSISAKGAERVITLKMEIPGSMPPLIQEMLENSEGLDTLSGQPGGGGRDGGGLAPPPGSCSPSLSPSSNRSSPATHSP"}}, "key": {"[1]": {"test_system": "murine hematopoietic progenitors (lin-)", "assay": "In vitro differentiation of murine hematopoietic progenitor cells transduced with retroviral constructs", "assay_type": "cell-based", "conditions": "for effect on differentiation of transduced progenitors: compared with control cells", "protocol": "FIG. 5. A heterologous oligomerization domain activates the transforming potential of RAR. (A-B) p53-RAR form oligomers. (A) Nuclear extracts from COS-1 cells transfected with expression vectors for p53-RAR or RAR were incubated with tritiated RA (10 nM), fractionated and analysed as described in FIG. 3A. Note that the low MW peak of RA-binding capacity (coinciding with RAR) in p53-RAR cells derives from expression of wild type RAR, starting from its own ATG-conserved in the p53-RAR expression vector (see below)-. (B) Fractions from gel filtration of in vitro translated, ^35-S labelled p53-RAR were analysed by SDS-PAGE, followed by autoradiography. Note that two products are generated in the reaction: full-length p53-RAR, fractionating in oligomeric complexes, and RAR, starting from the internal ATG site of RAR and fractionating as a monomer. (C-D) Effects of RAR chimeric proteins on differentiation of murine hematopoietic progenitors. Lin-cells were transduced with the indicated retroviral vectors and then sorted by FACS on the basis of their GFP positivity. In the case of ΔCC-PML-RAR, GFP+ cells were sorted in GFP^high or GFP^low expressors. After sorting, cells were either plated in differentiation medium in the absence or in the presence of RA (3 nM or 1 μM) (C), or analysed by Western blot (D). C, control, P-R, PML-RAR, ΔCC-P-R, ΔCC-PML-RAR, G-PR, GFP-PML-RAR, G-ΔCCPR, GFP-ΔCC-PML-RAR, G-p53R, GFP-p53-RAR. As described, RA delays myeloid differentiation of control cells, leading to a maximum 20-30% reduction in the number of Mac1 + cells (Purton et al., 1999). This effect is counter-acted by expression of PML-RAR and by high levels of ΔCC-PML-RAR. […]\nThe capacity of p53-RAR to block differentiation was evaluated using primary hematopoietic precursors purified from murine bone marrow on the basis of the absence of surface differentiation antigens (lin-see methods). […] After 8-10 days, colonies were pooled and analysed for the expression of myeloid differentiation markers (Mac-1 and GR-1). […]"}, "[2]": {"test_system": "U937 cells expressing PML-RAR under the control of an inducible promoter", "assay": "Differentiation (CD14) of U937 cells with inducible PML-RAR treated with vitamin D and TGFβ", "assay_type": "cell-based", "conditions": "PML-RAR induced, control infection (GFP alone), vitamin D and TGFβ", "text": "The cells were either uninduced (ctr column), or induced to express PML-RAR (PML-RAR column). Cells were transduced with retroviral vectors encoding the coiled coil of PML (RBCC) and GFP as a marker, or with retroviral vectors encoding GFP alone as a control (control). […] In cells expressing the coiled coil of PML (gated in the cytofluorimetric analysis based on the positivity for the GFP marker), PML-RAR was unable to block efficiently differentiation (from 90% to 70%). Levels of expression of PML-RAR were unchanged by expressing the coiled coil region of PML.\nRAR oligomerization through the coiled coil region of PML is required for its leukemogenic activity, and deletion of the PML coiled coil is sufficient to lead to loss of oncogenic potential (Minucci et al., 2000). Small molecule compounds able to disrupt PML-RAR oligomers would therefore be able to revert the leukemic phenotype."}}, "data": [{"molecule": "B1", "values": [{"measurement": "differentiation block", "setting": "[1]; Mac-1, 8-10 days in methylcellulose", "result": "about 50%"}, {"measurement": "effect on differentiation of transduced progenitors", "setting": "[1]", "result": "strong reduction in their capacity to differentiate"}, {"measurement": "differentiated, CD14+ cells", "setting": "[2]", "result": "about 30%"}]}, {"molecule": "B2", "values": [{"measurement": "effect on differentiation of transduced progenitors", "setting": "[1]", "result": "strong decrease in the number of Mac1+ and GR1+ cells"}]}]}
